Source: patent US7572589B2, “Diagnosis and treatment of infectious diseases through indel-differentiated proteins” (priority 2001, dated 2009)

Assays:
[1] = system: Macrophages infected with L. donovani; conditions: cells incubated with inhibitor prior to infection; cited from earlier work
SHP-1 [2] = molecular target: T1, SHP-1 (Homo sapiens, UniProt P29350); conditions: cited from earlier work
T1 construct: made in house

SHP-1 [3] = molecular target: T1, SHP-1; experiment: Binding assay of purified EF-1α with GST-SHP-1 glutathione beads, immunoblot; conditions: purified proteins, glutathione-sepharose beads
Experimental: (§1) For binding assays, purified EF-1α from either leishmania or macrophages was incubated with 25 μl (packed volume) of glutathione-agarose beads containing equal amounts of GST-SHP-1. Binding was accomplished by mixing in 100 μl of binding buffer (50 mM HEPES [pH 7.5], 0.15 M NaCl, 1 mM EDTA, 1 mM DTT, 0.01% Triton X-100™ and 1% glycerol) for 2 h at 4° C. The beads were collected by centrifugation and washed four times with binding buffer. Bound EF-1α was eluted by boiling beads in Laemmli sample buffer, separated on SDS-PAGE followed by immunoblotting using anti-EF-1α. Binding of EF-1α to calmodulin-agarose was performed essentially as described above for GST-SHP-1 except that binding buffer contained 0.2 mM CaCl2 instead of EDTA. Also, after incubation, non-bound proteins were removed and affinity beads were assayed for SHP-1 phosphatase activity using pNPP as a substrate. Relative phosphatase activity was assessed by measuring changes in absorbance at 405 nm.

SHP-1 [4] = molecular target: T2, SHP-1 (Mus musculus, UniProt P29351); experiment: SHP-1 phosphatase activity (pNPP) after Profect-1 delivery of purified EF-1α into macrophages; type: cell-based, murine; conditions: purified protein introduced into macrophages
T2 construct: complexes for delivery to macrophages (approximately 2×10^6); endogenous in cells; host or cells: macrophages (RAW 264.7 named in the materials)
Experimental: Approximately 1 μg of purified EF-1α from leishmania or macrophages or an equivalent amount of BSA were incubated separately with Profect 1™ reagent (Targety Systems, Santee, Calif., USA) in serum free media to prepare protein-Profect-1™ complexes for delivery to macrophages (approximately 2×10^6) according to the manufacturer's instructions. After 2-3 hr of incubation, cells were lysed in buffer C (50 mM Tris [pH 7.5], 1% Triton X-100™ and 0.15M NaCl) containing a cocktail of protease inhibitors for 20 min on ice and incubated with anti-SHP-1 for 2 h end-over-end at 4° C. Immune complexes were recovered using protein A-sepharose and after extensive washing with buffer C, immune complexes were assayed for phosphatase activity using pNPP as a substrate.

calmodulin = molecular target: T3, calmodulin (Homo sapiens, UniProt P0DP23); experiment: Binding of purified EF-1α to calmodulin-agarose; conditions: purified proteins
T3 construct: purchased Sigma Chemical Co. (St. Louis, Mo.)
Experimental: as §1

T1 sequence (P29350 whole entry): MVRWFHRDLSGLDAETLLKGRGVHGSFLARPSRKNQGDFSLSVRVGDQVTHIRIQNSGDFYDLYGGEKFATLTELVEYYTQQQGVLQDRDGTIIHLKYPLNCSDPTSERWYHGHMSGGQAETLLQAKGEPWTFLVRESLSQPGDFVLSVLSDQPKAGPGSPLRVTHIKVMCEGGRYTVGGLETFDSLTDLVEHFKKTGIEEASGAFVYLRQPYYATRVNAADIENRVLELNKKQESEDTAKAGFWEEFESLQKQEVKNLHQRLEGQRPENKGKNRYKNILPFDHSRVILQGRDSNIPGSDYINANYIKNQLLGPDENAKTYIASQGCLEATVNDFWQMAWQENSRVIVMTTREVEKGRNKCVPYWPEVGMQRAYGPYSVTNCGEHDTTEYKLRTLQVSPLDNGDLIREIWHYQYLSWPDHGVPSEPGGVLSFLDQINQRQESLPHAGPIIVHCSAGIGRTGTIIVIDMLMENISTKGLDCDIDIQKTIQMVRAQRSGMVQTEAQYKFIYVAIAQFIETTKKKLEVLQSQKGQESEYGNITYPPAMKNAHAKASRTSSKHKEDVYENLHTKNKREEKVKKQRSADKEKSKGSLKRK
T2 sequence (P29351 whole entry): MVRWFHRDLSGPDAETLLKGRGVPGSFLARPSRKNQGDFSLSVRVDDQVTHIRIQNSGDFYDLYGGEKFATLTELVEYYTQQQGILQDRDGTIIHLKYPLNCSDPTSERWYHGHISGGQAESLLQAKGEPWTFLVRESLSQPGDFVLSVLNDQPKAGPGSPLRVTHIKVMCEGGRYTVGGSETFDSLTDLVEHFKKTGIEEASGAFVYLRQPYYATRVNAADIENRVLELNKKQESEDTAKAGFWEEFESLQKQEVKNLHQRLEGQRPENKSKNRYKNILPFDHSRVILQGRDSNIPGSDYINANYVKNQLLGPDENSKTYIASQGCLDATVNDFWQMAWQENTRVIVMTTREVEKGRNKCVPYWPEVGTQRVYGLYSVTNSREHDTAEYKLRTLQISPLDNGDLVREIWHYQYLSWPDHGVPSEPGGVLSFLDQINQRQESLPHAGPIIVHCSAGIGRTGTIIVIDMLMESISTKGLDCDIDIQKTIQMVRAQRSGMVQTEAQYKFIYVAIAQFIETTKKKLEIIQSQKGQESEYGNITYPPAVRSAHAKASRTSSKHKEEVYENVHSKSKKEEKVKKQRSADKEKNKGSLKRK

## sodium orthovandate
[1]
  phenotype of impaired cell signaling and cell deactivation: reversed

## O.O.O.O.O.O.O.O.O.O=C([O-])[C@@H]1[O][Sb]2([O-])([O][Sb]34([OH])[O][C@H]([C@H](O)CO)[C@H]([O]3)[C@H](C(=O)[O-])[O]4)[O][C@H]([C@H](O)CO)[C@@H]1[O]2.[Na+].[Na+].[Na+] [sodium stibogluconate]
SHP-1 [2]
  inhibition of SHP-1: inhibitor of SHP-1

B1: macrophage EF-1α: EF-1α purified to near homogeneity from murine macrophages (RAW 264.7) (protein)
chain: GKEKTHINIVVIGHVDSGKSTTTGHLIYKCGGIDKRTIEKFEKEAAEMGKGSFKYAWVLDKLKAERERGITIDISLWKFETSKYYVTIIDAPGHRDFIKNMITGTSQADCAVLIVAAGVGEFEAGISKNGQTREHALLAYTLGVKQLIVGVNKMDSTEPPYSQKRYEEIVKEVSTYIKKIGYNPDTVAFVPISGWNGDNMLEPSANMPWFKGWKVTRKDGSASGTTLLEALDCILPPTRPTDKPLRLPLQDVYKIGGIGTVPVGRVETGVLKPGMVVTFAPVNVTTEVKSVEMHHEALSEALPGDNVGFNVKNVSVKDVRRGNVAGDSKNDPPMEAAGFTAQVIILNHPGQISAGYAPVLDCHTAHIACKFAELKEKIDRRSGKKLEDGPKFLKSGDAAIVDMVPGKPMCVESFSDYPPLGRFAVRDMRQTVAVGVIKAVDKKAAGAGKVTKSAQKAQKAK
SHP-1 [3]
  binding to GST-SHP-1: comparatively little binding
SHP-1 [4]
  activation of SHP-1: activation of SHP-1 was not observed
calmodulin
  binding to calmodulin: bound directly and with similar affinities
